Source: patent US20140017234A1
“And” between values parts separate entries of the source, which are not always exact repeats. Equal values may be shown once. Read-outs that look alike come from different tables or passages of the source.

Assays:
[1] = molecular target: HIV-1 YU-2 Env (gp120) mutant N280D (HIV-1 strain YU-2) (UniProt P35961)
[2] = molecular target: HIV-1 YU-2 Env (gp120) mutant N279K (HIV-1 strain YU-2) (UniProt P35961)
[3] = molecular target: HIV-1 YU-2 Env (gp120) mutant A281T (HIV-1 strain YU-2) (UniProt P35961)
[4] = molecular target: HIV-1 YU-2 Env (gp120) mutant N276S (HIV-1 strain YU-2) (UniProt P35961)
[5] = molecular target: HIV-1 YU-2 Env (gp120) mutant T278A (HIV-1 strain YU-2) (UniProt P35961)
[6] = molecular target: HIV-1 YU-2 Env (gp120) mutant N280Y (HIV-1 strain YU-2) (UniProt P35961)
[7] = molecular target: HIV-1 YU-2 Env (gp120) mutant A281T (HIV-1 strain YU-2) (UniProt P35961); assay: cell-based or functional assay
[8] = molecular target: HIV-1 YU-2 Env (gp120) mutant N280Y (HIV-1 strain YU-2) (UniProt P35961); remark: listed apart in the source
[9] = molecular target: HIV-1 YU-2 Env (gp120) mutant A281S (HIV-1 strain YU-2) (UniProt P35961)
[10] = molecular target: HIV-1 YU-2 Env (gp120) mutant N279K (HIV-1 strain YU-2) (UniProt P35961); remark: listed apart in the source
[11] = molecular target: clade A/E 93TH057-derived gp120 core (HIV-1 clade A/E strain 93TH057)
[12] = molecular target: HIV-1 YU-2 Env (gp120) mutant N280D (HIV-1 strain YU-2) (UniProt P35961); remark: listed apart in the source

Row | Substance | IC50 (pseudovirus neutralization, TZM-bl cells) [1] | IC50 (pseudovirus neutralization, TZM-bl cells) [2] | IC50 (pseudovirus neutralization, TZM-bl cells), first of the two values given [3] | IC50 (pseudovirus neutralization, TZM-bl cells), second of the two values given [3] | IC50 (pseudovirus neutralization) [4] | IC50 (pseudovirus neutralization) [5] | IC50 (pseudovirus neutralization, TZM-bl cells) (YU-2^N279H (HIV-1)) | IC50 (pseudovirus neutralization, TZM-bl cells) [10] | Kd [11] | also measured
1 | 45-46m25 IgG (45-46m2 + HC W47I) (antibody) | 0.19 µg/mL | 2.59 µg/mL | 0.1 µg/mL | > 50 µg/mL | – | – | – | – | – | –
2 | 45-46m2 IgG (NIH45-46 with G54W in the heavy chain and S28Y in the light chain) (antibody) | 0.435 µg/mL | – | 0.1 µg/mL | > 50 µg/mL | 0.006 µg/mL | 0.001 µg/mL | 0.452 µg/mL | – | – | IC50 (pseudovirus neutralization, TZM-bl cells) [6]: 2.23 µg/mL; plateau of the in vitro neutralization curve [7]: 50%; IC50 (pseudovirus neutralization, TZM-bl cells) [8]: 2.23 µg/mL; IC50 (read off the curve) [9]: 0.01 µg/mL
3 | 45-46m28 IgG (45-46m2 + HC W47T) (antibody) | – | 0.652 µg/mL | 0.1 µg/mL | > 50 µg/mL | – | – | – | 0.65 µg/mL | – | –
4 | 45-46m2 Fab (NIH45-46 with G54W in the heavy chain and S28Y in the light chain) | – | – | – | – | – | – | – | – | 51 nM and 57 nM | –
5 | 45-46m7 IgG (45-46m2 + HC W47V) (antibody) | 0.139 µg/mL | 2.41 µg/mL | 0.1 µg/mL | > 50 µg/mL | 0.003 µg/mL | 0.001 µg/mL | 0.245 µg/mL | 2.41 µg/mL | – | plateau of the in vitro neutralization curve [7]: 50%; IC50 (read off the curve) [9]: 0.01 µg/mL
6 | NIH45-46^G54W Fab | – | – | – | – | – | – | – | – | 62 nM and 72 nM | –
7 | NIH45-46 Fab | – | – | – | – | – | – | – | – | 221 nM and 178 nM | –
8 | NIH45-46^G54W IgG (antibody) | – | – | 0.1 µg/mL | > 50 µg/mL | 0.004 µg/mL | 0.001 µg/mL | > 50 µg/mL | > 50 µg/mL | – | IC50 (pseudovirus neutralization, TZM-bl cells) [12]: > 50 µg/mL; IC50 (pseudovirus neutralization, TZM-bl cells) [8]: > 50 µg/mL; IC50 (pseudovirus neutralization, TZM-bl cells) (YU-2^R456W (HIV-1)): 5.67 µg/mL
